# Changes are numbered by the printed parent chain.
# B1: ADI-41316 (antibody, V domains shown)
# VH: QVQLVQSGGGVVQPGRSLRLSCAASGFTFNNYGMHWVRQAPGKGLEWVAVLSFDGINKYYADSARGRFTISRDNSKNTLYLQMNSLRAEDTALYYCAKDRQEYSSGWTHDACDIWGQGTMVTVSS
# VL: EIVMTQSPATLSVSPGERATLSCRASQNVNNNLAWYQQNPGQAPRLLIFGASTRATGIPARFSGSGSGTEFTLTISSLQSEDFAVYYCQQYNNWPRTFGQGTKLEIK
# B2: ADI-41319 (antibody, V domains shown)
# VH: QVQLQESGPGLVKPSQTLSLTCTVSGGSISSGDYYWSWIRQPPGKGLEWIGYIFYSGTTYYNPSLKSRVTISLDTSQNQFSLKLSSVTAADTAVYYCARDGDEVDYVWGTRRYLDSWGRGTLVTVSS
# VL: EIVLTQSPGTLSLSPGERATLSCRASQSVSSRYLAWYQQKPGQAPRLLIHGASSRATGIPDRFSGSGSGTDFTLTISRLEPEDFAVYYCLQYGSLPKTFGQGTKVEIK
# B3: ADI-41342 (antibody, V domains shown)
# VH: QVQLVQSGAEVKKPGSSVKVSCKASGGTLTSYGVSWVRQAPGQGLEWMGGIIPIFGTVDYAQKFQGRVTITADEPTSTAYMELSSLTSDDTAVYYCARDPWVSGPVEFYYYFDVWGRGTLVTVSS
# VL: B2 VL with E1D, Q6E, G9A, V29I, S30N, S31N, H50F, L90Q, L95T, K97P
# B4: ADI-41317 (antibody, V domains shown)
# VH: EVQLVESGGGLVQPGGSLRLSCEASRFKFSTFWMAWVRQAPGKGLEWVANIKQDGSETYYLDSVKGRFTISRDNAKNSLFLQMKSLRAEDTAVYYCAGLWWGDLENWFDPWGQGTLVTVSS
# VL: QSVLTQPPSVSGAPGQRVTISCTGSSSNLGTGFDVHWYRQLPGTAPQLLIYGSTNRPSGVPDRFSGSKYGTSASLAITGLQAEDEADYYCQSYDSNLRAYVFGTVTKVTVL
# B5: ADI-41306 (antibody, V domains shown)
# VH: QVQLVESGPRLVKPSQTLSLTCTVSGGSIYRGDYDWNWIRQPPGKGLEWIGYISYTGNTHYNSSLKSRLSISADTSGTHFSLKLSSVTAADTAIYYCARDVGYGGNAAHYYYYAMDVWGQGTTVTVSS
# VL: ETTLTQSPATLSLSPGERATLSCRASQSVGSSLAWYQQKVGQAPRLLIYDASSRVTGIPARFSGSGSGTDFTLTISSLEPGDFAVYYCQQRSNSLTFGGGTKVEIK
# B6: ADI-41322 (antibody, V domains shown)
# VH: QVQLVQSGAEVKKPGSSVRVSCKASGGSFSSYATSWVRQAPGQGLEWMGGIIPMYDAVNYAQKFQGRVTITADESTTTAYMELSSLRSEDTAVYYCARSSGYTGTNFFDYWGQGTLVTVSS
# VL: DIQMTQSPSSVSASVGDRVTITCRASQDISSWLAWYQQKPGKAPKLLIYTASSLQSGVPSRFSGSGSGTDFTLTISRLQPEDFATYYCQQANSFPRVTFGGGTKVEIK
# B7: ADI-41313 (antibody, V domains shown)
# VH: EVQLVESGAEVKKPGASVKVSCKASGYTFNNYDISWVRQAPGQGLEWMGWISTYNGNTNYAQKFQGRATMTTDTSTTTAYMELRSLRSDDSAIYYCARVYCGGDCHNPFFLYFDLWGRGTLVTVSS
# VL: SYVLTQPLSVSVALGQTARITCGGNNIGSKSVHWYQQKPGQAPLLVIYRDNNRPSGIPERFSGSTSGNTATLTISRAQAGDEADYSCQVWDNSDWVFGGGTKLTVL
# B8: ADI-41323 (antibody, V domains shown)
# VH: EVQLLESGGGVVRPGGSLRLSCAASGFTFDDYAMGWVRQAPGKGLEWVSGITWNAGSTAYAGSVKGRFTISRDNAKNSLFLQMNSLRAEDTAFYLCARHVDSSGPVARHFDYWGQGTLVTVSS
# VL: NFMLTQPHSVSESPGKTVTISCTRSSGSIARNYVQWYQQRPGSAPTIVIYEDNQRPSGVPDRFSGSIDSSSNSASLTISGLKTEDEADYYCQSYDPSNVVFGGGTKLTVL
# B9: ADI-41309 (antibody, V domains shown)
# VH: EVQLLESGPGLVKPSQTLSLTCTVSGGSISSGDYYWSWVRQPPGKGLEWIGNIYHSGSTYYKPSLKSRVSISLDTSKNQFSLKLSSVTAADTAIYYCARDGGENYVWGTFRFLDVWGQGTTVTVSS
# VL: DIRLTQSPGTLSLSPGERATLSCRASQSVSSSYLAWYQQKPGQAPRLLIYGVSSRATGIPDRFSGSGSGTDFTLTINRLEPEDFALYHCQQYGSSPHTFGQGTKVEIK
# B10: ADI-41324 (antibody, V domains shown)
# VH: EVQLVESGGGLVQPGGSLRLSCAASGFTVSNNYMRWVRQAPGKGLEWVSVIYSSGSTDYADSVKGRFTISRDNSKNTLYLQMNSLRAEDTAVYYCARERTLFYYDSSGFFDYWGQGTLVTVSS
# VL: ETTLTQSPGTLSLSPGERATLSCRASQSVDSSYLAWYQQKPGQAPRLLIYGASNRATGIPDRFSGSGSGTDFTLTISRLEPEDFAVYYCQQYGRSLTFGGGTKLEIK
# B11: ADI-41318 (antibody, V domains shown)
# VH: EVQLLESGAEVKKPGSSVRVSCKAFGGTFSSYAFSWVRQAPGQGLEWMGGITPMFGTENYAPNFQGRVTITADKLTTTVYMELSRLRSEDSAVYYCAREGGRLGTTMGAFDMWGQGTMVTVSS
# VL: DIRLTQSPSSLSASVGDRVTITCRASHGISSALAWYQQRPGRVPQVLIFHASTLESGVPSRFSGSGSGTDFTLTISSLQPEDFATYYCQQFNSYPYTFGQGTKVEIK
# B12: ADI-41310 (antibody, V domains shown)
# VH: QVQLVQSGVEVKKPGESLKISCRGSGYSFYNYWIAWVRQKPGKGLEYMGTIYLDDSDTIYSPSFQGEVTISADKSINTAYLQWNSLKASDTANYYCARQMDFYFDVWGRGTLVTVSS
# VL: SYELTQPPSVSVSPGQTARITCSGDPLPRESAYWYQQKPGQAPVVVIFNDIERPLGIPGRFSGSRSGATATLTINGAQAEDEADYYCQSADSRKTFVFGAGTKLTVL
# B13: ADI-41320 (antibody, V domains shown)
# VH: B12 VH with S25F, F29A, K74R
# VL: B12 VL with S1Q, Y2S, E3V, G59A, A68T, A70V, N75S, A100P
# B14: ADI-41315 (antibody, V domains shown)
# VH: EVQLLESGPGLVKPSETLSLTCAVSGGSISNYYWSWIRQPPGKGLEWIAYISYSGTTNYNPSLESRVTISVDTSKNQFSLKLNSVTAADTAVYYCARHEFLVLPDVWGQGTLVTVSS
# VL: ETTLTQSPGTLSLSPGERATLSCRASQSVSSTFLAWYQQKPGQAPRLLIYAASSRATGIPDRFSGSGSGTDFTLIISRLEPEDFAVYYCQQYRSSPFSFGPGTKVEIK
# B15: ADI-41312 (antibody, V domains shown)
# VH: QVQLQESGPGLVKPSGTLSLTCAVSGGSISSSNWWNWVRQPPGKGLEWIGEIYHSGRTNYNPSLKSRVSISIDKFKSQFSLNLNSVTAADTAVYYCARDLPGTPYDIVPGYYPGLRRHDAFDIWGQGTMVTVSS
# VL: not shown
# B16: ADI-41308 (antibody, V domains shown)
# VH: EVQLVESGPGLVKPSQTLSLTCAISGDSVSSNSAAWNWIRQSPSRGLERMGRTYYRSKWYDDYAVSVKSRIIINPDTSKNQFSLQLNSVTPEDTAVYYCARGISTFGGVIYALEIWGQGTMVTVSS
# VL: SYVLTQPASVSGSPGQSITISCTGLTSDVGGYNFVSWYQQHPGKAPKLIIYDVSHRPSGVSNRFSGSESGNTASLTISGLQAEDEAHYYCSSYTRTSIVVFGGGTKLTVL
# B17: ADI-41314 (antibody, V domains shown)
# VH: QVQLVQSGAEVKKPGSSVKVSCKAFGGIFSSYAISWVRQAPGQGLEWMGGIIPIFGTTKYAQKFQGRVTITADKSTSTVYMEVSSLRFEESAVYFCARAYCSGGTWYGGADYWGQGTLVTVSS
# VL: QSVLTQPPSVSVSPGQTARITCSGDVLPKQYAYWYQQKPGQAPLLVMYKDTERPSGIPERFSGSSSVTAVTLTISGVQAEDEADYYCQSADSTQELFGGGTKLTVL
# B18: ADI-41341 (antibody, V domains shown)
# VH: QVQLVQSGAEVKKPGSSVKVSCKASGGTFSSYATHWVRQAPGQGLEWMGGIIPIFGRATYAQKFQGRVTISADESTSTAYMELSSLRSEDTAVYYCARGRDDRSGDHIAFLYHYGMDVWGQGSTVTVSS
# VL: QSVLTQPPSVSAAPGQKVSISCSGSSSNIGINHASWYQHLPGTAPKLLIYDNNKRPSGIPDRFSGSKSGTSATLGISGLQTGDEAAYYCGTWDTGLSAVVFGGGTKLTVL
# B19: ADI-41307 (antibody, V domains shown)
# VH: QVQLVESGGGLVKPGGSLRLSCAASGFPLSPYALNWVRQAPGKGLEWVSSITSSSAYIYYADSVKGRFTVSRDNPTNSLYLQMNSLRAEDTAVYYCARTIPQHYYDNNGDYYNYGMDVWGQGTTVTVSS
# VL: DIVLTQSPATLSVSPGQRITLSCRASQTVRSNLAWYQQKPGQPPRLLIYGASTRATGVPARFTGSGSGTEFTLTITSLQSDDFAVYYCHQYNDRPLTFGPGTKVEIK
# B20: ADI-41311 (antibody, V domains shown)
# VH: QVTLKQSGPALVKPTQTLTLTCTFSGFSLSTKRMGVSWIRQPPGKALEWLARIDWDDDKYYSTSLRTRLTISKDTSKNQVVLTMTDMDPVDTATYYCARIQPYTSGGYYSYYFDYWGQGTLVTVSS
# VL: DIQVTQSPSSLSASIGDRVTITCRASQTIASYLNWYQQKPGKAPKLLIYIASSLQSGVPSRFSGSGSGTDFTLTISTLQPEDFATYYCQQSYGTPWTFGQGTKVEIK
# B21: ADI-41340 (antibody, V domains shown)
# VH: QVQLVQSGAEVKTPGSSVKVSCKASGGTFRSYPITWVRQAPGQGLEWMGTVIPVFDTVNYAPKFQGRVSITADESTNTAYMELSSLRSDDSAVYYCARDLGWLRPMTTVTSPHFDYWGQGTLVTVSS
# VL: QSVLTQPASVSGSPGQSITISCTGTSSDVGGYDFVSWYQQHPGKAPKLMISEVTDRPSGVSNRFSGSKSGNTASLTISGLQAEDEADYYCTSYTSSRTYVFGTGTKLTVL
# Biological target: RSV F on RSV-A2 virus (Respiratory syncytial virus (RSV-A2))
# Assay: cell-based or functional assay
row,Binder,Neutralization IC50 (RSV subtype A) [µg/mL]
1,B1,> 25
2,B2,> 25
3,B3,> 25
4,B4,4.66
5,B5,0.173
6,B6,> 25
7,B7,> 25
8,B8,> 25
9,B9,> 25
10,B10,> 25
11,B11,> 25
12,B12,> 25
13,B13,> 25
14,B14,> 25
15,B15,> 25
16,B16,> 25
17,B17,> 25
18,B18,> 25
19,B19,> 25
20,B20,> 25
21,B21,> 25

# From US20260258115A1 (MAPP BIOPHARMACEUTICAL, published 2026)
